Results on 3 substances are retold here after publication doi:10.1101/2025.03.06.641855.

Assay [1] has as its target OppA-ev2 (evolved OppA variant with seven mutations) (E. coli (K12)) (UniProt P23843). Description: MST.
Assay [2] deals with wt-OppA, periplasmic binding protein of the oligopeptide permease (Opp) transporter (E. coli (K12)) (UniProt P23843). Description: MST.

One may read the Kd as the concentration at which binding is half-saturated. Higher therefore signals a looser complex. With G-SisoK, isopeptide-linked tripeptide, the Kd in assay [1] stood at 37 µM; in assay [2] it was 50 µM.
In the case of SisoK, isopeptide-linked dipeptide, the Kd in assay [1] and in assay [2] was 300 µM in each case.
linear GSK tripeptide: the Kd in assay [1] is 275 µM; in assay [2], 71 µM.
